The chains are these.
B1: Zinc finger MYM-type protein 3, residues 589 to 668; numbered along this chain, Q14202 (parent)
chain: LSCHYCHSLFSGKPEVLDWQDQVFQFCCRDCCEDFKRLRGVVSQCEHCRQEKLLHEKLRFSGVEKSFCSEGCVLLYKQDF

This is an account of results in the Human Domainome abundance scans (Beltran et al. 2025).

± gives the uncertainty stated by the source.

The series covers variants of B1. The series can be described thus: abundance fitness (aPCA) (normalised: wild type 0, dead -1); higher = more abundant; growth selection in yeast, the domain comes from the species named. Particulars: Homo sapiens.
Turning to LSCHYCHALFSGKPEVLDWQDQVFQFCCRDCCEDFKRLRGVVSQCEHCRQEKLLHEKLRFSGVEKSFCSEGCVLLYKQDF, the abundance fitness was 0.321 ± 0.039.

Regarding LSCHYCHPLFSGKPEVLDWQDQVFQFCCRDCCEDFKRLRGVVSQCEHCRQEKLLHEKLRFSGVEKSFCSEGCVLLYKQDF, the abundance fitness was -1.19 ± 0.17.

In the case of LSCHYCHSLFSGKPEVLDWQDQVFQFCCRDCCEDFKRLRGVVSQCEHCRQEKLLFEKLRFSGVEKSFCSEGCVLLYKQDF, the abundance fitness was determined as 0.109 ± 0.12.

In the case of LSCHYCHSLFSGKLEVLDWQDQVFQFCCRDCCEDFKRLRGVVSQCEHCRQEKLLHEKLRFSGVEKSFCSEGCVLLYKQDF, the abundance fitness was -0.523 ± 0.054.

On to LSCHYCHSLFSGKPEVMDWQDQVFQFCCRDCCEDFKRLRGVVSQCEHCRQEKLLHEKLRFSGVEKSFCSEGCVLLYKQDF, for which the abundance fitness was 0.043 ± 0.055.

Consider LSCHYCHSLFSGKPEVLDWQDQVFQFCCRDCCEDFKRLRGVVSQCEHCRQEKLLHEKLRFSGVEKSFCSEGCVLWYKQDF, for which the abundance fitness was -0.561 ± 0.13.

For the variant LSCHYCHSLFSGKPVVLDWQDQVFQFCCRDCCEDFKRLRGVVSQCEHCRQEKLLHEKLRFSGVEKSFCSEGCVLLYKQDF, the abundance fitness amounted to 0.057 ± 0.046.

For LSCHYCHSLFSGKPEVLDWQDQVFQFCCRDCCEDFKRLRGIVSQCEHCRQEKLLHEKLRFSGVEKSFCSEGCVLLYKQDF, the abundance fitness worked out at 0.195 ± 0.24.

In the case of LSCHYCHSLFSGKPEVLDWQDQVFQFCCRDCCEDFKRLRGVVSQCEHCRQEKLLHERLRFSGVEKSFCSEGCVLLYKQDF, the abundance fitness amounted to 0.092 ± 0.086.

For the variant LSCHYCHSLFSGKPEVLDWQDQVFQFCCRDCCEDFKRLRGVVSQCEHCRQEKLLHEKGRFSGVEKSFCSEGCVLLYKQDF, the abundance fitness is 0.012 ± 0.082.

In the case of LSCHYCHSLFSGKPEVLDWQDQVFQFCCRDCCEDFKRLRGVVSQCEMCRQEKLLHEKLRFSGVEKSFCSEGCVLLYKQDF, the abundance fitness was -0.061 ± 0.2.

LSCHYCHSLFSGKPEVLDWQDQVFQFCCRDCSEDFKRLRGVVSQCEHCRQEKLLHEKLRFSGVEKSFCSEGCVLLYKQDF: the abundance fitness is -0.227 ± 0.047.

In the case of LSCHYCHSLFSGKPEVLDWQDQVFQFCCRDCWEDFKRLRGVVSQCEHCRQEKLLHEKLRFSGVEKSFCSEGCVLLYKQDF, the abundance fitness was -0.403 ± 0.051.

For LSCHYCHSLFSGKPEVLDWQDQVFQFCCRDCFEDFKRLRGVVSQCEHCRQEKLLHEKLRFSGVEKSFCSEGCVLLYKQDF, the abundance fitness is -0.237 ± 0.09.

In the case of LLCHYCHSLFSGKPEVLDWQDQVFQFCCRDCCEDFKRLRGVVSQCEHCRQEKLLHEKLRFSGVEKSFCSEGCVLLYKQDF, the abundance fitness was 0.081 ± 0.043.

As for LSCHYCYSLFSGKPEVLDWQDQVFQFCCRDCCEDFKRLRGVVSQCEHCRQEKLLHEKLRFSGVEKSFCSEGCVLLYKQDF, the abundance fitness came to 0.112 ± 0.053.

Take LSCHYCDSLFSGKPEVLDWQDQVFQFCCRDCCEDFKRLRGVVSQCEHCRQEKLLHEKLRFSGVEKSFCSEGCVLLYKQDF: the abundance fitness amounted to 0.226 ± 0.07.

Turning to LSCHYCHSLFSGKPEVLDWQDQVFQFCCRDCCEDFKRLRGVVSQCEHCRREKLLHEKLRFSGVEKSFCSEGCVLLYKQDF, the abundance fitness came out at 0.01 ± 0.11.

Consider LSCHYCHSLFSGKPEVLPWQDQVFQFCCRDCCEDFKRLRGVVSQCEHCRQEKLLHEKLRFSGVEKSFCSEGCVLLYKQDF, for which the abundance fitness turned out to be 0.236 ± 0.047.

Turning to LSCHYCHSLFSGKPEVLDWQDQVFQFHCRDCCEDFKRLRGVVSQCEHCRQEKLLHEKLRFSGVEKSFCSEGCVLLYKQDF, the abundance fitness is -0.517 ± 0.11.

As for LSCHYCHSLFSGKPEVLDWQDQVFQFWCRDCCEDFKRLRGVVSQCEHCRQEKLLHEKLRFSGVEKSFCSEGCVLLYKQDF, the abundance fitness was -0.859 ± 0.072.

Take LSCHYCHSLFSGKPEVLDWQDQVFQFYCRDCCEDFKRLRGVVSQCEHCRQEKLLHEKLRFSGVEKSFCSEGCVLLYKQDF: the abundance fitness is -0.798 ± 0.32.

With LSCHYCHSLFSGKPEVLDWQDQVFQFCCRDCCEDFKRLRGVVSQCEHCRQEKLLHEKLRFSGVEKSFCSEGCVLLYVQDF, the abundance fitness is -0.193 ± 0.14.

For LSCHYCHSLFSGKPEVLDWQDQVFQFCCRDCCEDFKRLRGVVSQAEHCRQEKLLHEKLRFSGVEKSFCSEGCVLLYKQDF, the abundance fitness was -0.666 ± 0.2.

On to LSCHYCHSLFSGKPEVLDWQDQVFQFCCRDCCEDFKRLRGVVSQCEHCRQEKLLHEKLRDSGVEKSFCSEGCVLLYKQDF, for which the abundance fitness was -0.529 ± 0.36.

In the case of LSCHPCHSLFSGKPEVLDWQDQVFQFCCRDCCEDFKRLRGVVSQCEHCRQEKLLHEKLRFSGVEKSFCSEGCVLLYKQDF, the abundance fitness was -0.906 ± 0.076.

For LSCHYCHSLFSGKPEVLDWQDQVFQFCCRDCCEDFKRLRGVVSQCEHCTQEKLLHEKLRFSGVEKSFCSEGCVLLYKQDF, the abundance fitness was -0.352 ± 0.14.

As to LSCHYCHSLFSRKPEVLDWQDQVFQFCCRDCCEDFKRLRGVVSQCEHCRQEKLLHEKLRFSGVEKSFCSEGCVLLYKQDF, the abundance fitness was -0.145 ± 0.04.

With LSCHYCHSLFSGKPEVLDWQDQVFQFCCYDCCEDFKRLRGVVSQCEHCRQEKLLHEKLRFSGVEKSFCSEGCVLLYKQDF, the abundance fitness stood at 0.26 ± 0.069.

As to LSCHYCHSLFSGKPEVLDWQDQVFQFCCRDCCEDFKRLRGVVSQCEHCRQEKLLHEKLRFSGVEKSFGSEGCVLLYKQDF, the abundance fitness is -0.88 ± 0.15.

For the variant LSCHYCHSLFSGKPEVLDWQDQVFFFCCRDCCEDFKRLRGVVSQCEHCRQEKLLHEKLRFSGVEKSFCSEGCVLLYKQDF, the abundance fitness is -0.035 ± 0.073.

LSCHYCHSLFSGKPEVLDWQDQVFQFCCRDCCEDFPRLRGVVSQCEHCRQEKLLHEKLRFSGVEKSFCSEGCVLLYKQDF: the abundance fitness was -0.615 ± 0.093.

LSCHYCHSLFSGKPEVLDWQDQVFQFCCRDCCEDFWRLRGVVSQCEHCRQEKLLHEKLRFSGVEKSFCSEGCVLLYKQDF: the abundance fitness was -0.181 ± 0.043.

Consider LSCHYCHSLFSGKPEVLDWQDQVFQFCCRDCCEDFKRLRGVVSQCEHCRQEKVLHEKLRFSGVEKSFCSEGCVLLYKQDF, for which the abundance fitness is -0.056 ± 0.092.

Take LSCHYCHSLFSGKPEVLDWQDQVFQYCCRDCCEDFKRLRGVVSQCEHCRQEKLLHEKLRFSGVEKSFCSEGCVLLYKQDF: the abundance fitness is -0.409 ± 0.1.
